These results are taken from paper PMC4529168, “Molecular Cloning, Heterologous Expression, and Functional Characterization of an NADPH-Cytochrome P450 Reductase Gene from Camptotheca acuminata, a Camptothecin-Producing Plant” (PLoS ONE, 2015).

The data set deals with T1, NC(=O)C1=CN([C@@H]2O[C@H](COP(=O)(O)OP(=O)(O)OC[C@H]3O[C@@H](n4cnc5c(N)ncnc54)[C@H](OP(=O)(O)O)[C@@H]3O)[C@@H](O)[C@H]2O)C=CC1.
T1 construct: N-terminal 69 residues (membrane anchor) removed, His6-tag kept (probably N-terminal, 660 residues with tag), expressed in E. coli BL21(DE3), Ni-NTA purified
Nature of the data set: purified protein. The note with it: 75 μM equine heart cytochrome c, 50 mM Tris-HCl pH 7.4, 25°C. Type of data set: biochemical, Camptotheca acuminata.

tCamCPR (Camptotheca acuminata), sequence (chain, as listed by the source): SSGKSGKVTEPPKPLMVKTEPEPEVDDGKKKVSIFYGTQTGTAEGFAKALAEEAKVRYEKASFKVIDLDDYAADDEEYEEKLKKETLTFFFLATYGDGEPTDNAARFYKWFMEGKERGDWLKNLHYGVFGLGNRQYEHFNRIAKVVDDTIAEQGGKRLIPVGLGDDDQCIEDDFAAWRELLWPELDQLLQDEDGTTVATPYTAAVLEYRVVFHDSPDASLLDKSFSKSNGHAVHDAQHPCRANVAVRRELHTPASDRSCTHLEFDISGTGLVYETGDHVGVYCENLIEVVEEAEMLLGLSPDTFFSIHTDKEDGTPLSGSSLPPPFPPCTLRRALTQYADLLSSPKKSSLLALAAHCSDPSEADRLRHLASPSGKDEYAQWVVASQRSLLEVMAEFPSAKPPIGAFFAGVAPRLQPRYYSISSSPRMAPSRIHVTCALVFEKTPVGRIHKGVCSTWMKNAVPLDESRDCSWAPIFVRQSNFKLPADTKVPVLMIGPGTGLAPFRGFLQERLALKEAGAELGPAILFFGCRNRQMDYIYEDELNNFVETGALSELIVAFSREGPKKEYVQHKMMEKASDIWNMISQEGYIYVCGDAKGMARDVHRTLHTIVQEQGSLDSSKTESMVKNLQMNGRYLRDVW

tCamCPR (Camptotheca acuminata): the Km was found to be 18.7 ± 3.6 µM.

Usually Km stands for the substrate concentration at which the rate is half of its maximum.
